Measurements from paper PMC3737549.

Molecular target: RORγ-mCherry (UniProt P51450)
Chain of UniProt P51450 (P51450 whole entry): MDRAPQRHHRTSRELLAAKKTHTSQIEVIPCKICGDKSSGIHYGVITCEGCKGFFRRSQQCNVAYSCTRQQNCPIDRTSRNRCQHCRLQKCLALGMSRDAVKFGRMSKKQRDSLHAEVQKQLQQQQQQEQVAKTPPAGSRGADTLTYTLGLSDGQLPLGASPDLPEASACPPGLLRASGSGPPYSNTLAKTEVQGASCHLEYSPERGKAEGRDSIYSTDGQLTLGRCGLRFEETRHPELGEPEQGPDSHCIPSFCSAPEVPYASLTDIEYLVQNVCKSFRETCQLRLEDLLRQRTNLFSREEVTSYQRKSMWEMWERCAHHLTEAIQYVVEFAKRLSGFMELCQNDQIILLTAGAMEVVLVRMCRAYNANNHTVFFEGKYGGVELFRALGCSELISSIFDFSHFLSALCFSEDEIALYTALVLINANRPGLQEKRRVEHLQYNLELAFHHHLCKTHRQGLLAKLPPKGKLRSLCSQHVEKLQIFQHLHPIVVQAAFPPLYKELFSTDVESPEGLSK

| Binder | nuclear localisation of PΔN106 in COS-1 cells: percent of cells with the mutant principally in the nucleus on co-expression with RORγ (50% when expressed alone) (% of the cells) | nuclear localisation of PΔC636 in COS-1 cells: percent of cells with the mutant predominantly in the nucleus on co-expression with RORγ (6% when expressed alone) (% of the cells) |
| --- | --- | --- |
| Myc-Prox1 PΔN106 (domain or fragment) TEPSFQASGLSSTGSEVHQEDICSNSSRDSPPECLSPFGRPTMSQFDVDRLCDEHLRAKRARVENIIRGMSHSPSVALRGNENEREMAPQSVSPRESYRENKRKQKLPQQQQQSFQQLVSARKEQKREERRQLKQQLEDMQKQLRQLQEKFYQVYDSTDSENDEDGDLSEDSMRSEILDARAQDSVGRSDNEMCELDPGQFIDRARALIREQEMAENKPKREGSNKERDHGPNSLQPEGKHLAETLKQELNTAMSQVVDTVVKVFSAKPSRQVPQVFPPLQIPQARFAVNGENHNFHTANQRLQCFGDVIIPNPLDTFGSVQMPSSTDQTEALPLVVRKNSSEQSASGPATGGHHQPLHQSPLSATAGFTTPSFRHPFPLPLMAYPFQSPLGAPSGSFSGKDRASPESLDLTRDTTSLRTKMSSHHLSHHPCSPAHPPSTAEGLSLSLIKSECGDLQDMSDISPYSGSAMQEGLSPNHLKKAKLMFFYTRYPSSNMLKTYFSDVKFNRCITSQLIKWFSNFREFYYIQMEKYARQAINDGVTSTEELSITRDCELYRALNMHYNKANDFEVPERFLEVAQITLREFFNAIIAGKDVDPSWKKAIYKVICKLDSEVPEIFKSPNCLQELLHE | 90 | – |
| Myc-Prox1 PΔC636 (domain or fragment) MPDHDSTALLSRQTKRRRVDIGVKRTVGTASAFFAKARATFFSAMNPQGSEQDVEYSVVQHADGEKSNVLRKLLKRANSYEDAMMPFPGATIISQLLKNNMNKNGGTEPSFQASGLSSTGSEVHQEDICSNSSRDSPPECLSPFGRPTMSQFDVDRLCDEHLRAKRARVENIIRGMSHSPSVALRGNENEREMAPQSVSPRESYRENKRKQKLPQQQQQSFQQLVSARKEQKREERRQLKQQLEDMQKQLRQLQEKFYQVYDSTDSENDEDGDLSEDSMRSEILDARAQDSVGRSDNEMCELDPGQFIDRARALIREQEMAENKPKREGSNKERDHGPNSLQPEGKHLAETLKQELNTAMSQVVDTVVKVFSAKPSRQVPQVFPPLQIPQARFAVNGENHNFHTANQRLQCFGDVIIPNPLDTFGSVQMPSSTDQTEALPLVVRKNSSEQSASGPATGGHHQPLHQSPLSATAGFTTPSFRHPFPLPLMAYPFQSPLGAPSGSFSGKDRASPESLDLTRDTTSLRTKMSSHHLSHHPCSPAHPPSTAEGLSLSLIKSECGDLQDMSDISPYSGSAMQEGLSPNHLKKAKLMFFYTRYPSSNMLKTYFSDVKFNRCITSQLIKWFSNFREFYYIQME | – | 80 |
